The values that follow come from patent publication US20200040059A1.

Assay [1] deals with PD-1 on Jurkat/PD-1 cells. Kind of assay: flow cytometry on Jurkat/PD-1 cells, 50 nM. A general note: A flow cytometer gives signals particle by particle.
For assay [2], the target named is PD-1 on Jurkat/PD-1 cells. Kind of assay: flow cytometry, 50 nM; ratio to wild type PD-L1 IgV-Fc.
The target of another assay is T1, CD226 (human) (UniProt Q15762).
T1 sequence: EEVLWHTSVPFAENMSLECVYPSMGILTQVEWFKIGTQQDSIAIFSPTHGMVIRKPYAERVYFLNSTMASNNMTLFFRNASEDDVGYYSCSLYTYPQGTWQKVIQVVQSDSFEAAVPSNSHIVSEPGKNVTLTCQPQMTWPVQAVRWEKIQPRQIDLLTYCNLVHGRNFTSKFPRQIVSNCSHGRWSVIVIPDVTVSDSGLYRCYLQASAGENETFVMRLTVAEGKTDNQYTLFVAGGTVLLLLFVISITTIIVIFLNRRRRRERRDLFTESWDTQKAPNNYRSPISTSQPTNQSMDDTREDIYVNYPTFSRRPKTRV
Put plainly: flow cytometry, CD226-expressing cells.

In assay [3] the target is T2, TIGIT (human) (UniProt Q495A1).
T2 sequence: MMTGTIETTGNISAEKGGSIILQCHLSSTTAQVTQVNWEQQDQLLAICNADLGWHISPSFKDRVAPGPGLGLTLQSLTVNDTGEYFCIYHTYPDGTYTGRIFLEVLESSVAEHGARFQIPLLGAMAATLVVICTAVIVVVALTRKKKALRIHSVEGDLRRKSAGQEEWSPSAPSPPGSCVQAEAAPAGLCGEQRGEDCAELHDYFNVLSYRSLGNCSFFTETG
Kind of assay: flow cytometry, TIGIT-expressing cells.

Assay [4] concerns the target T3, CD96 (UniProt P40200).
T3 sequence (looked up): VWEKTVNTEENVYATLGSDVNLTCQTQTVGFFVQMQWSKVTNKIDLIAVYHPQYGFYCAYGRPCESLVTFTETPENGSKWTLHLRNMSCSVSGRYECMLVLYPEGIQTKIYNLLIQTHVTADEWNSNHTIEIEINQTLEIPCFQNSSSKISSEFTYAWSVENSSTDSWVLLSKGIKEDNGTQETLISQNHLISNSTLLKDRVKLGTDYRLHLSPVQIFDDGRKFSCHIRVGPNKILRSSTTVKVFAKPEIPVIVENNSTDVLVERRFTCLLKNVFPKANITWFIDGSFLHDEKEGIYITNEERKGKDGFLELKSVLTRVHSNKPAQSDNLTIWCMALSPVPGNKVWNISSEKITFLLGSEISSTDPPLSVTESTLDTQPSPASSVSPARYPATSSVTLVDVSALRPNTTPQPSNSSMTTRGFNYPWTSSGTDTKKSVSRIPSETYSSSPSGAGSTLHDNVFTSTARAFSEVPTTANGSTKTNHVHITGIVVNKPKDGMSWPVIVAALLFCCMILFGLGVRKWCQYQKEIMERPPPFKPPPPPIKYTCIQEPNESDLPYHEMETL
Kind of assay: flow cytometry, CD96-expressing cells.

In assay [5] the target is PD-1 (Homo sapiens (Human)) (UniProt Q15116). Kind of assay: flow cytometry, Jurkat/PD-1 cells.
Assay [6] addresses T3, CD96. Put plainly: flow cytometry on CD96-expressing cells.
In another assay the target is PD-L1 (human) (UniProt Q9NZQ7). Kind of assay: flow cytometry, transfected cells.
The next assay has as its target CD28 (human) (UniProt P10747). Kind of assay: flow cytometry, transfected cells.
Assay [7] deals with human PD-L1, full-length, expressed on transfected Expi293 cells (human) (UniProt Q9NZQ7). Put plainly: flow cytometry on PD-L1-expressing Expi293 cells.
The target of assay [8] is human CD28, full-length, expressed on transfected Expi293 cells (human) (UniProt P10747). Put plainly: flow cytometry on CD28-expressing Expi293 cells.
Assay [9] deals with human CTLA-4, full-length, expressed on transfected Expi293 cells (human) (UniProt P16410). Kind of assay: flow cytometry on CTLA-4-expressing Expi293 cells.
The target in assay [10] is T3, CD96. Put plainly: flow cytometry, cells.
The target of assay [11] is T2, TIGIT (human). Kind of assay: flow cytometry, transfected cells.
The target of the next assay is PD-1-Fc. Kind of assay: Fortebio (BLI), PD-1-Fc. For orientation: BLI is a label-free optical method that tracks binding on a fibre tip over time.
The next assay deals with human B7-H6 (human) (UniProt Q68D85). Put plainly: flow cytometry, transfected cells.
human B7-H6 (human), sequence (Q68D85 25-454): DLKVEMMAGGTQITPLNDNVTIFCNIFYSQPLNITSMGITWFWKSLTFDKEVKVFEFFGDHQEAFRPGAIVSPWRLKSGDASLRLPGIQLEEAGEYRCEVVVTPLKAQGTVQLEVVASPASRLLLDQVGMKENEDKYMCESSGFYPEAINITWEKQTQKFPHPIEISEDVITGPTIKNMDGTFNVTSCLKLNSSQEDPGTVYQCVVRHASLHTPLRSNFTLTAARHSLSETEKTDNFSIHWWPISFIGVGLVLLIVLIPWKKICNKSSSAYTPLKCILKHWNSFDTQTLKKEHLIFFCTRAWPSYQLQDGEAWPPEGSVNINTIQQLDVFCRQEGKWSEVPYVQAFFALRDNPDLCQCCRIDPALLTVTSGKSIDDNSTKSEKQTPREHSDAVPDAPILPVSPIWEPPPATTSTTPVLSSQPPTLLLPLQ

PD-1 (Homo sapiens (Human)), sequence (Q15116 21-288 limits assumed, form in doubt): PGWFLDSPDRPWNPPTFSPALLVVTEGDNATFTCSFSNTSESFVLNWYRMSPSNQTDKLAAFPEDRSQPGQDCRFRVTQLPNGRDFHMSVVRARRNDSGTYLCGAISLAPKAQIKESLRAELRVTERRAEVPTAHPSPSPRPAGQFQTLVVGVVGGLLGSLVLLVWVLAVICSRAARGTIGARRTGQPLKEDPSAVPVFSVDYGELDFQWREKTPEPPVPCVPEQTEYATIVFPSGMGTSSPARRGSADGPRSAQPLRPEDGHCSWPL
human PD-L1, full-length, expressed on transfected Expi293 cells (human), sequence (Q9NZQ7 19-290 limits assumed): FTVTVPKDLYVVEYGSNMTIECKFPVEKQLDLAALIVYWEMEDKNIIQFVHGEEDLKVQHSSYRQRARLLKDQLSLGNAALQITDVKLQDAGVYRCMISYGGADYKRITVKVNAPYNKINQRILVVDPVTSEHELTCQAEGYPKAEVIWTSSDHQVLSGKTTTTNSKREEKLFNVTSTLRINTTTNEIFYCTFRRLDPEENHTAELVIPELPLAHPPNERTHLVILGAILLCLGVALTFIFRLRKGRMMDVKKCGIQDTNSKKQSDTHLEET
human CTLA-4, full-length, expressed on transfected Expi293 cells (human), sequence (P16410 36-223 limits assumed): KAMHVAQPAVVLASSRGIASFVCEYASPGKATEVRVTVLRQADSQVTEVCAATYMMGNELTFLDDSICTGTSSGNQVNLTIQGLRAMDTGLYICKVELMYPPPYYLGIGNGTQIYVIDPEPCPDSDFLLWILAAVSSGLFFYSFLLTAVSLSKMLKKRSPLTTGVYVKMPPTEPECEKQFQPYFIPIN
Domain 1: CD80 WT / Domain 2: CD86 WT / Fc (Fc fusion), sequence (chain): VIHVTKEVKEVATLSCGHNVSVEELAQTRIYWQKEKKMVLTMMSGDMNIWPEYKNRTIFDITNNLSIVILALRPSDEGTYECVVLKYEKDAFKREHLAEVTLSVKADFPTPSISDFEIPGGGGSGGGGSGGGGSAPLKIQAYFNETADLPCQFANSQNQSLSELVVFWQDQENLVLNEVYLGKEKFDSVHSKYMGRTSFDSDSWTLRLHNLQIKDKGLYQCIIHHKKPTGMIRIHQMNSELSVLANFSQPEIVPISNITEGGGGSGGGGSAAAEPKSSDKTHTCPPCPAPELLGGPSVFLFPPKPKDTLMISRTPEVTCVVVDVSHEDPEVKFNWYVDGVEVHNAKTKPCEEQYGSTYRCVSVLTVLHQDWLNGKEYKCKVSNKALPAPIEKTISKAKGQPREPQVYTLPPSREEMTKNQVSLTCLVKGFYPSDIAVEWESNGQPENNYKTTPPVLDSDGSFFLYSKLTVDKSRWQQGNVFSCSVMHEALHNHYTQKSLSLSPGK
PD-L1 (human), sequence (Q9NZQ7 19-290 limits assumed): as the sequence (Q9NZQ7 19-290 limits assumed) above
Domain 1: CD86 WT / Domain 2: CD80 WT / Fc (Fc fusion), sequence (chain): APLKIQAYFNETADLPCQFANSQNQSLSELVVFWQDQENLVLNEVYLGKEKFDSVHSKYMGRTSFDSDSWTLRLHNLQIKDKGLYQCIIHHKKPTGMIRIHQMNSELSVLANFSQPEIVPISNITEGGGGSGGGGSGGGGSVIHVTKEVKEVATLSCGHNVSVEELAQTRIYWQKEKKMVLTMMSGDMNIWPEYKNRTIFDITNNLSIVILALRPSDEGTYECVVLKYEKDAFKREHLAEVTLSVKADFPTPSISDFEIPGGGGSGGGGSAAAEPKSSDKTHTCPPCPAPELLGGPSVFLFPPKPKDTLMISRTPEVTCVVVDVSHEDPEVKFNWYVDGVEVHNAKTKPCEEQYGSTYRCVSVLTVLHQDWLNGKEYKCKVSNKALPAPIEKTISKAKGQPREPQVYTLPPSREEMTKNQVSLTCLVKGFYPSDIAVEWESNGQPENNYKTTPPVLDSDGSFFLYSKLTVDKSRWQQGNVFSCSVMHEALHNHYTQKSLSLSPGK

With “PD-L1 IgV I20L, E27G, D43G, N45D, V58A, N78I Fc fusion”, the MFI at 50 nM in assay [1] was 69500. Moreover, the Fold increase over wildtype PD-L1 IgV-Fc in [2] worked out at 13.3 fold.

“PD-L1 IgV I20L, A33D, D43G, N45D, V58A, N78I Fc fusion” had an MFI at 50 nM in [1] of 80200. Also, in assay [2], the Fold increase over wildtype PD-L1 IgV-Fc was determined as 15.3 fold.

Consider “CD155 variant IgV-Fc L79P, L104M (from UniProt P15151 24-139) (Fc fusion)”, for which the MFI at 100 nM in the assay with CD226 (human) was found to be 8320 MFI; in the assay with TIGIT (human) [3], 3210 MFI; in the assay with CD96 [4], 2890 MFI.

As to “variant PD-L2 IgV-Fc H15Q, C23S, I86T (Fc fusion)”, in [5], the MFI at 50 nM is 830.

In the case of “CD155 variant IgV-Fc V9L, P18T, Q62R, L79P, F91S, L104M, G111R (from UniProt P15151 24-139) (Fc fusion)”, the MFI at 11.1 nM was found to be 835 MFI with CD226 (human) and 1500 MFI with CD96 [4].

For “PD-L1 IgV I20L, E27G, N45T, V50A Fc fusion”, the MFI at 50 nM in assay [1] is 29800. Moreover, the Fold increase over wildtype PD-L1 IgV-Fc in assay [2] is 5.7 fold.

With “variant PD-L2 IgV-Fc I13V, H15Q, E44V, T47A, Q82R, V89D (Fc fusion)”, in [5], the MFI at 50 nM stood at 61000.

In the case of “CD155 variant IgV-Fc P18S, T45S, T61K, S65W, S67A, F91S, G111R (from UniProt P15151 24-139) (Fc fusion)”, the figures for the MFI at 100 nM with CD226 (human), with TIGIT (human) [3] and with CD96 [4] were 2110 MFI, 125000 MFI and 2220 MFI, respectively.

The substance “CD112 ECD-Fc (from UniProt Q92692 32-360) (Fc fusion)” gave an MFI at 100 nM with CD96 [6] of 1100 MFI.

The substance “CD155 variant IgV-Fc P18F, T26M, L44V, Q62K, L79P, F91S, L104M, G111D (from UniProt P15151 24-139) (Fc fusion)” returned an MFI at 100 nM with CD96 [4] of 1630 MFI.

“Domain 1: CD86 WT / Domain 2: CD80 WT / Fc (Fc fusion)”: the figures for the MFI in the assay with PD-L1 (human) and with CD28 (human) were 1520 and 4950, respectively.

Regarding “CD80 variant V4M/L70Q/A91G/T120S/T130A ECD-Fc fusion”, the MFI in [7] was 6 MFI; in assay [8], 89 MFI; in assay [9], 263 MFI. Moreover, the MFI parental ratio (ratio to WT CD80 ECD-Fc) in assay [7] worked out at 0.09; in [8], 0.94; in [9], 1.26.

Turning to “CD155 variant IgV-Fc P18S, S65W, S67A, M90V, V95A, L104Q, G111R (from UniProt P15151 24-139) (Fc fusion)”, the MFI at 100 nM in the assay with CD96 [4] was 2570 MFI.

On to “CD155 variant IgV-Fc P18H, S42G, T45I, S52T, G53R, S54H, V57L, H59E, T61S, S65D, E68G, L104N (Fc fusion)”, for which, in the assay with CD96 [4], the MFI at 100 nM was found to be 3700 MFI.

For the substance “CD80 variant N63S/L70Q/A91G/T120S/T130A ECD-Fc fusion (from UniProt P33681 35-242)”, the MFI was found to be 6 MFI in assay [7], 124 MFI in assay [8] and 165 MFI in assay [9].

Take “CD155 A81V, L83P IgV-Fc (from UniProt P15151 24-139) (Fc fusion)”: the figures for the MFI in the assay with CD96 [10] and with TIGIT (human) [11] were 2620 and 2910, respectively.

Substance “CD155 variant IgV-Fc V9I, Q12K, P18F, S65A, S67V, L79P, L104T, G111R, S112I (from UniProt P15151 21-139) (Fc fusion)” gave an MFI at 11.1 nM with CD226 (human) of 803 MFI.

For “CD80 variant T28S/L70Q/A91G/E95K/T120S/T130A ECD-Fc fusion (from UniProt P33681 35-242)”, the MFI came to 6 MFI in assay [7], 32 MFI in [8] and 65 MFI in assay [9].

“CD155 variant IgV-Fc A13R, D23Y, E37P, S42P, Q62Y, A81E (from UniProt P15151 24-139) (Fc fusion)”: the MFI at 100 nM in the assay with CD226 (human) was 11700 MFI; with TIGIT (human) [3], 4160 MFI; with CD96 [4] it was 5760 MFI.

As for “Domain 1: CD80 WT / Domain 2: CD86 WT / Fc (Fc fusion)”, the MFI in the assay with PD-L1 (human) amounted to 2080; with CD28 (human) it was 60300.

PD-L1 IgV A33D, S75P, D104G Fc fusion: in [1], the MFI at 50 nM amounted to 251. Also, the Fold increase over wildtype PD-L1 IgV-Fc in [2] was determined as 0 fold.

“PD-L1 IgV I20L, D43G, N45D, N78I Fc fusion” gave an MFI at 50 nM in assay [1] of 67000. Besides, the Fold increase over wildtype PD-L1 IgV-Fc in [2] is 12.8 fold.

Take “CD155 variant IgV-Fc P18S, L79P, L104M, T107M (from UniProt P15151 24-139) (Fc fusion)”: the MFI at 100 nM with CD226 (human) came out at 18300 MFI; with CD96 [4], 22800 MFI.

In turn, “variant PD-L2 IgV-Fc I13V, H15Q, T47A, R76G, V89D (Fc fusion)” showed a Fortebio binding to PD-1-Fc Response Units (Response Units) with PD-1-Fc of 1.6. The substance also returned an MFI at 50 nM in [5] of 53700.

For “variant PD-L2 IgV-Fc H15Q, S67L, I86T (Fc fusion)”, in assay [5], the MFI at 50 nM was determined as 16000.

In assay [1], “PD-L1 IgV I20L, D43G, N45D, V58A, N78I Fc fusion” registered an MFI at 50 nM of 72700. In [2], the Fold increase over wildtype PD-L1 IgV-Fc came to 13.9 fold.

For the substance “CD155 variant IgV-Fc P18L, E37S, Q62M, G80S, A81P, G99Y, S112N (from UniProt P15151 24-139) (Fc fusion)”, the MFI at 100 nM stood at 5900 MFI with TIGIT (human) [3] and 3340 MFI with CD96 [4].

Consider “CD112 variant R12W, A46T, K66M, Q79R, N106I, T113A, S118F IgV-Fc (from UniProt Q92692 32-156) (Fc fusion)”, for which, in the assay with CD96 [6], the MFI at 100 nM amounted to 4060 MFI.

“variant PD-L2 IgV-Fc H15Q, N24S, T47A, Q72H, R76G, V89D (Fc fusion)” showed a Fortebio binding to PD-1-Fc Response Units (Response Units) with PD-1-Fc of 0.4. The same substance had an MFI at 50 nM in [5] of 32100.

Substance “variant PD-L2 IgV-Fc I13V, H15Q, T37A, E44D, S48C, S67L, Q82R, V89D (Fc fusion)” gave a Fortebio binding to PD-1-Fc Response Units (Response Units) with PD-1-Fc of 1.25. In [5], this substance yielded an MFI at 50 nM of 47600.

For the substance “variant PD-L2 IgV-Fc E44D, V89D, W91R (Fc fusion)”, the MFI at 50 nM in [5] was 614.

Substance “Domain 1: CD86 WT / Domain 2: Nkp30 WT / Fc (Fc fusion)” showed an MFI in the assay with human B7-H6 (human) of 129000.

As for “variant PD-L2 IgV-Fc H15Q, Q82R, V89D (Fc fusion)”, in the assay with PD-1-Fc, the Fortebio binding to PD-1-Fc Response Units (Response Units) came to 1.2. The substance also came in with an MFI at 50 nM in assay [5] of 49700.

Consider “CD155 P18S, F91P IgV-Fc (from UniProt P15151 24-139) (Fc fusion)”, for which the MFI with CD96 [10] was 2680; in the assay with TIGIT (human) [11] it was 3220.

“CD155 variant IgV-Fc P18S, V41A, S42G, T45G, L104N (from UniProt P15151 24-139) (Fc fusion)”: the MFI at 100 nM was 11400 MFI with CD226 (human), 3820 MFI with TIGIT (human) [3] and 3090 MFI in the assay with CD96 [4].

As to “PD-L1 IgV A33D, S75P Fc fusion (SEQ ID NO 1310)”, the MFI at 50 nM in [1] is 1790. Further, in assay [2], the Fold increase over wildtype PD-L1 IgV-Fc was found to be 0.3 fold.

“Full length PD-L1 Fc (from UniProt Q9NZQ7 19-239) (Fc fusion)”: the MFI at 50 nM in assay [1] came to 18500. The Fold increase over wildtype PD-L1 IgV-Fc in assay [2] amounted to 3.5 fold.

In the assay with CD226 (human), “CD155 variant IgV-Fc P18S, A47G, L79P, F91S, L104M, T107A, R113W (from UniProt P15151 24-139) (Fc fusion)” registered an MFI at 11.1 nM of 1190 MFI.
